Test system: six V600E BRAF melanoma cell lines
Assay: Screening of recombinant RTK ligands for ability to confer resistance to BRAFi (PLX4720) or MEKi (PD184352) (Table 4)
Type: cell-based, human
Design: ability of recombinant RTK ligand to confer resistance / ability of recombinant RTK ligand to confer resistance (screening value): scale not given here
Outline: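 Six V600E BRAF melanoma lines treated with PLX4720 or PD184352 after addition of 22 recombinant RTK ligands, scored for drug resistance. Activation of selected RTKs confirmed by western blotting and high-throughput tyrosine kinase phosphorylation profiling.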

B1: flt-3 ligand (FL) (protein, UniProt P49771 27-235, looked up)
Fms-related tyrosine kinase 3 …: TQDCSFQHSPISSDFAVKIRELSDYLLQDYPVTVASNLQDEELCGGLWRLVLAQRWMERLKTVAGSKMQGLLERVNTEIHFVTKCAFQPPPSCLRFVQTNISRLLQETSEQLVALKPWITRQNFSRCLELQCQPDSSTLPPPWSPRPLEATAPTAPQPPLLLLLLLPVGLLLLAAAWCLHWQRTRRRTPRPGEQVPPVPSPQDLLLVEH
With B1 the “ability of recombinant RTK ligand to confer resistance” value (shortened to “ability of recombinant RTK ligand”) (A2058, PD184352 - 1 uM, ligand 0.4 ng/ml) was 1.03, the “ability of recombinant RTK ligand” value (A2058, PD184352 - 1 uM, ligand 1.6 ng/ml) was 0.99 and the “ability of recombinant RTK ligand” value (A2058, PD184352 - 1 uM, ligand 6.25 ng/ml) was 1.00. For the same molecule, the “ability of recombinant RTK ligand” value (A2058, PD184352 - 1 uM, ligand 25 ng/ml) was 1.02, the “ability of recombinant RTK ligand” value (A2058, PD184352 - 1 uM, ligand 100 ng/ml) was 0.89 and the “ability of recombinant RTK ligand” value (A2058, PLX4720 - 2 uM, ligand 0.4 ng/ml) was 0.97. For the same molecule, the “ability of recombinant RTK ligand” value (A2058, PLX4720 - 2 uM, ligand 1.6 ng/ml) was 0.98, the “ability of recombinant RTK ligand” value (A2058, PLX4720 - 2 uM, ligand 6.25 ng/ml) was 1.01 and the “ability of recombinant RTK ligand” value (A2058, PLX4720 - 2 uM, ligand 25 ng/ml) was 1.06. For the same molecule, the “ability of recombinant RTK ligand” value (A2058, PLX4720 - 2 uM, ligand 100 ng/ml) was 0.93, the “ability of recombinant RTK ligand” value (C32, PD184352 - 1 uM, ligand 0.4 ng/ml) was 1.02 and the “ability of recombinant RTK ligand” value (C32, PD184352 - 1 uM, ligand 1.6 ng/ml) was 1.08. For the same molecule, the “ability of recombinant RTK ligand” value (C32, PD184352 - 1 uM, ligand 6.25 ng/ml) was 1.10, the “ability of recombinant RTK ligand” value (C32, PD184352 - 1 uM, ligand 25 ng/ml) was 1.08 and the “ability of recombinant RTK ligand” value (C32, PD184352 - 1 uM, ligand 100 ng/ml) was 1.07. For the same molecule, the “ability of recombinant RTK ligand” value (C32, PLX4720 - 2 uM, ligand 0.4 ng/ml) was 0.99, the “ability of recombinant RTK ligand” value (C32, PLX4720 - 2 uM, ligand 1.6 ng/ml) was 0.97 and the “ability of recombinant RTK ligand” value (C32, PLX4720 - 2 uM, ligand 6.25 ng/ml) was 1.00. For the same molecule, the “ability of recombinant RTK ligand” value (C32, PLX4720 - 2 uM, ligand 25 ng/ml) was 0.87, the “ability of recombinant RTK ligand” value (C32, PLX4720 - 2 uM, ligand 100 ng/ml) was 0.97 and the “ability of recombinant RTK ligand” value (Colo 829, PD184352 - 1 uM, ligand 0.4 ng/ml) was 1.07. The “ability of recombinant RTK ligand” value (Colo 829, PD184352 - 1 uM, ligand 1.6 ng/ml) was 0.98, the “ability of recombinant RTK ligand” value (Colo 829, PD184352 - 1 uM, ligand 6.25 ng/ml) was 0.97 and the “ability of recombinant RTK ligand” value (Colo 829, PD184352 - 1 uM, ligand 25 ng/ml) was 1.05. For the same molecule, the “ability of recombinant RTK ligand” value (Colo 829, PD184352 - 1 uM, ligand 100 ng/ml) was 0.97, the “ability of recombinant RTK ligand” value (Colo 829, PLX4720 - 2 uM, ligand 0.4 ng/ml) was 1.08 and the “ability of recombinant RTK ligand” value (Colo 829, PLX4720 - 2 uM, ligand 1.6 ng/ml) was 0.98. The “ability of recombinant RTK ligand” value (Colo 829, PLX4720 - 2 uM, ligand 6.25 ng/ml) was 1.00, the “ability of recombinant RTK ligand” value (Colo 829, PLX4720 - 2 uM, ligand 25 ng/ml) was 1.05 and the “ability of recombinant RTK ligand” value (Colo 829, PLX4720 - 2 uM, ligand 100 ng/ml) was 0.97. The “ability of recombinant RTK ligand” value (G-361, PD184352 - 1 uM, ligand 0.4 ng/ml) was 1.04, the “ability of recombinant RTK ligand” value (G-361, PD184352 - 1 uM, ligand 1.6 ng/ml) was 1.09 and the “ability of recombinant RTK ligand” value (G-361, PD184352 - 1 uM, ligand 6.25 ng/ml) was 0.97. For the same molecule, the “ability of recombinant RTK ligand” value (G-361, PD184352 - 1 uM, ligand 25 ng/ml) was 1.01, the “ability of recombinant RTK ligand” value (G-361, PD184352 - 1 uM, ligand 100 ng/ml) was 0.89 and the “ability of recombinant RTK ligand” value (G-361, PLX4720 - 2 uM, ligand 0.4 ng/ml) was 1.00. The “ability of recombinant RTK ligand” value (G-361, PLX4720 - 2 uM, ligand 1.6 ng/ml) was 0.87, the “ability of recombinant RTK ligand” value (G-361, PLX4720 - 2 uM, ligand 6.25 ng/ml) was 0.88 and the “ability of recombinant RTK ligand” value (G-361, PLX4720 - 2 uM, ligand 25 ng/ml) was 0.88. For the same molecule, the “ability of recombinant RTK ligand” value (G-361, PLX4720 - 2 uM, ligand 100 ng/ml) was 0.79, the “ability of recombinant RTK ligand” value (SK-MEL-5, PD184352 - 1 uM, ligand 0.4 ng/ml) was 0.97 and the “ability of recombinant RTK ligand” value (SK-MEL-5, PD184352 - 1 uM, ligand 1.6 ng/ml) was 0.97. The “ability of recombinant RTK ligand” value (SK-MEL-5, PD184352 - 1 uM, ligand 6.25 ng/ml) was 1.00, the “ability of recombinant RTK ligand” value (SK-MEL-5, PD184352 - 1 uM, ligand 25 ng/ml) was 0.92 and the “ability of recombinant RTK ligand” value (SK-MEL-5, PD184352 - 1 uM, ligand 100 ng/ml) was 0.90. For the same molecule, the “ability of recombinant RTK ligand” value (SK-MEL-5, PLX4720 - 2 uM, ligand 0.4 ng/ml) was 1.07, the “ability of recombinant RTK ligand” value (SK-MEL-5, PLX4720 - 2 uM, ligand 1.6 ng/ml) was 1.07 and the “ability of recombinant RTK ligand” value (SK-MEL-5, PLX4720 - 2 uM, ligand 6.25 ng/ml) was 1.03. The “ability of recombinant RTK ligand” value (SK-MEL-5, PLX4720 - 2 uM, ligand 25 ng/ml) was 0.93, the “ability of recombinant RTK ligand” value (SK-MEL-5, PLX4720 - 2 uM, ligand 100 ng/ml) was 1.04 and the “ability of recombinant RTK ligand” value (SK-MEL-28, PD184352 - 1 uM, ligand 0.4 ng/ml) was 1.04. The “ability of recombinant RTK ligand” value (SK-MEL-28, PD184352 - 1 uM, ligand 1.6 ng/ml) was 0.95, the “ability of recombinant RTK ligand” value (SK-MEL-28, PD184352 - 1 uM, ligand 6.25 ng/ml) was 0.98 and the “ability of recombinant RTK ligand” value (SK-MEL-28, PD184352 - 1 uM, ligand 25 ng/ml) was 0.78. The “ability of recombinant RTK ligand” value (SK-MEL-28, PD184352 - 1 uM, ligand 100 ng/ml) was 0.99, the “ability of recombinant RTK ligand” value (SK-MEL-28, PLX4720 - 2 uM, ligand 0.4 ng/ml) was 0.94 and the “ability of recombinant RTK ligand” value (SK-MEL-28, PLX4720 - 2 uM, ligand 1.6 ng/ml) was 0.90. The “ability of recombinant RTK ligand” value (SK-MEL-28, PLX4720 - 2 uM, ligand 6.25 ng/ml) was 0.86, the “ability of recombinant RTK ligand” value (SK-MEL-28, PLX4720 - 2 uM, ligand 25 ng/ml) was 0.82 and the “ability of recombinant RTK ligand” value (SK-MEL-28, PLX4720 - 2 uM, ligand 100 ng/ml) was 0.98.

Reference: US20140348819A1, “Methods of Treating Cancer” (Dana-Farber Cancer Institute, Inc., priority 2011, published 2014)
